From patent US20240301076A1

Target: human CXCR2 (human) (UniProt P25025)
Experiment: cell-based or functional assay

Chain of human CXCR2 (human) (P25025 whole entry): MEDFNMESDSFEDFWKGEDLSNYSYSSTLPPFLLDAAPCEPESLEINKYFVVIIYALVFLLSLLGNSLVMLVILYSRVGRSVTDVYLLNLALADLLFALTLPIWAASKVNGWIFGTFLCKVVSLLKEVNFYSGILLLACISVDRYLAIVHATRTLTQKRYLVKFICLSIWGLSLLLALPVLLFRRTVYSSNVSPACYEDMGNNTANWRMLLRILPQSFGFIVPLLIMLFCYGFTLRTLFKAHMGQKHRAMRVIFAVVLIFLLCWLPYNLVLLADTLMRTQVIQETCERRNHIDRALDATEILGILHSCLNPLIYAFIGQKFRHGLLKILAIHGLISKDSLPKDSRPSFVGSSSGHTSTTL

B1: human CXCL7 (ligand, UniProt P02775 59-128, looked up)
chain: AELRCMCIKTTSGIHPKNIQSLEVIGKGTHCNQVEVIATLKDGRKICLDPDAPRIKKIVQKKLAGDESAD
EC50 mean, Tango assay: 39.6 nM | EC50 mean, calcium flux assay: 7.14 nM
